Assay results reported in paper PMC11850223.
Substitutions are numbered along the chain they refer to. Values belong to the molecule of their own block, whether it stands above or below them.

How the values were obtained:
[1] = biological target: Hera_1–419_K51Q (ATPase-deficient variant) (Thermus thermophilus); assay: SEC
[2] = biological target: Hera_1–510_K51Q (ATPase-deficient variant) (Thermus thermophilus); assay: SEC
[3] = biological target: T1, trans-heterodimer Hera_1-419/Hera_370-510 (Thermus thermophilus, UniProt O07897;O07897 1-419;370-510); assay: stopped-flow fluorescence
T1 sequence 1: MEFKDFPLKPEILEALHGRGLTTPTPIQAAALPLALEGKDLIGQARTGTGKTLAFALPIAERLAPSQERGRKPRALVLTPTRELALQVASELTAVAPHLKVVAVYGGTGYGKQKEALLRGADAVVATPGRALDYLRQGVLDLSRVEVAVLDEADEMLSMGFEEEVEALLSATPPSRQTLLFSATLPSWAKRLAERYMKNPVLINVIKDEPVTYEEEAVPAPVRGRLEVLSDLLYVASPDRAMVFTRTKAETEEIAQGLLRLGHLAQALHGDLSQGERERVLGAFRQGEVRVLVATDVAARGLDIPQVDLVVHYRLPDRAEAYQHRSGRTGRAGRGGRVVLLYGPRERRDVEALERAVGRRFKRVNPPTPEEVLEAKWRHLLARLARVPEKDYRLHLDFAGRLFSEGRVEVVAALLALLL
T1 sequence 2: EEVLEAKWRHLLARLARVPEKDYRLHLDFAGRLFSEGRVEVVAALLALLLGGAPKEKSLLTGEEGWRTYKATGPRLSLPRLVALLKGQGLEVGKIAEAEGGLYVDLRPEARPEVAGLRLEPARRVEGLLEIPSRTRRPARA

[4] = biological target: T2, cis-heterodimer Hera/Hera_208-419 (Thermus thermophilus, UniProt O07897;O07897 1-510;208-419); assay: fluorescence anisotropy
T2 sequence 1: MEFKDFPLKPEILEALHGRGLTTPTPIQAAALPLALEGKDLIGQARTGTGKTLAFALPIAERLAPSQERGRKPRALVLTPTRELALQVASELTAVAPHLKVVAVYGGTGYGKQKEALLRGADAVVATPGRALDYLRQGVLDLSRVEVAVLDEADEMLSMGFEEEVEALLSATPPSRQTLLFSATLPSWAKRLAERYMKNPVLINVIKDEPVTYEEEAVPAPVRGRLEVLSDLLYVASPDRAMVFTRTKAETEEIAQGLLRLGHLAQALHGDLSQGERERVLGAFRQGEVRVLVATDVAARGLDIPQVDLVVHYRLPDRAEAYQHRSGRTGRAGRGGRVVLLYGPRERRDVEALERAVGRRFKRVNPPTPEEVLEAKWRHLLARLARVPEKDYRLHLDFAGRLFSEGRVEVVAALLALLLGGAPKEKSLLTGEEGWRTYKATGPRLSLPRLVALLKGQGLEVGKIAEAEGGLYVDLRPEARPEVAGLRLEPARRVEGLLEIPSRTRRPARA
T2 sequence 2: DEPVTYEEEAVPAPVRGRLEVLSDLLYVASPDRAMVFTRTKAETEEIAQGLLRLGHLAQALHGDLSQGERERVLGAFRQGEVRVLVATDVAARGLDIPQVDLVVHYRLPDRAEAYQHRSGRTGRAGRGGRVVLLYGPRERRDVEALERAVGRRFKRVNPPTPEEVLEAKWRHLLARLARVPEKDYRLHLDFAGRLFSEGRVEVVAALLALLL

Hera_K51Q [5] = biological target: T3, Hera_K51Q (Thermus thermophilus, UniProt O07897 1-510, K51Q); assay: stopped-flow fluorescence
T3 sequence: T2 sequence 1 with K51Q

Hera [6] = biological target: T4, Hera (Thermus thermophilus, UniProt O07897 1-510); assay: stopped-flow fluorescence
T4 sequence: T2 sequence 1

[7] = biological target: T5, Hera/Hera_K51Q heterodimer (Thermus thermophilus, UniProt O07897;O07897 1-510;1-510, K51Q); assay: stopped-flow fluorescence
T5 sequence 1: T2 sequence 1
T5 sequence 2: T2 sequence 1 with K51Q

Hera_K51Q [8] = biological target: T3, Hera_K51Q; assay: fluorescence anisotropy
Hera [9] = biological target: T4, Hera; assay: fluorescence anisotropy
[10] = biological target: T5, Hera/Hera_K51Q heterodimer; assay: fluorescence anisotropy
Hera_E115C_E227C = biological target: T6, Hera_E115C_E227C (Thermus thermophilus, UniProt O07897 1-510, E115C;E227C); assay: single-molecule FRET
T6 sequence: T2 sequence 1 with E115C, E227C

[11] = biological target: T7, Hera_1-419_E115C_E227C/Hera_1-419 heterodimer (Thermus thermophilus, UniProt O07897;O07897 1-419;1-419, E115C;E227C); assay: single-molecule FRET
T7 sequence 1: T1 sequence 1 with E115C, E227C
T7 sequence 2: T1 sequence 1

[12] = biological target: T8, Hera/Hera_1-419 heterodimer, dye-labelled in cis (Thermus thermophilus, UniProt O07897;O07897 1-510;1-419, E115C;E227C); assay: single-molecule FRET
T8 sequence 1: T2 sequence 1 with E115C, E227C
T8 sequence 2: T1 sequence 1

[13] = biological target: T9, Hera/Hera_1-419 heterodimer, dye-labelled in trans (Thermus thermophilus, UniProt O07897;O07897 1-510;1-419, E115C;E227C); assay: single-molecule FRET
T9 sequence 1: T2 sequence 1
T9 sequence 2: T1 sequence 1 with E115C, E227C

[14] = biological target: T2, cis-heterodimer Hera/Hera_208-419; assay: stopped-flow fluorescence
[15] = biological target: T1, trans-heterodimer …; assay: fluorescence anisotropy
[16] = biological target: T10, Hera/Hera_1-419 heterodimer (Thermus thermophilus, UniProt O07897;O07897 1-510;1-419); assay: fluorescence anisotropy
T10 sequence 1: T2 sequence 1
T10 sequence 2: T1 sequence 1

- stoichiometry N [1]: 2
Molecule: Hera_1–419_K51Q (ATPase-deficient variant) (domain or fragment)

- stoichiometry N [2]: 2
Molecule: Hera_1–510_K51Q (ATPase-deficient variant) (enzyme)

Molecule: GCAGGUCCCAAGGGUUGGGCUGUUCGCCCAUU (structured_RNA) [fl-32mer]
- Kd [3]: 7300 ± 1000 nM
- Kd [4]: 126 ± 9 nM
- Kd (Hera_K51Q [5]): 1500 ± 700 nM
- Kd (Hera [6]): 490 ± 220 nM
- Kd [7]: 130 ± 70 nM
- Kd (Hera_K51Q [8]): 170 ± 20 nM
- Kd (Hera [9]): 60 ± 10 nM
- Kd [10]: 80 ± 20 nM

Molecule: GCAGGUCCCAAGGGUUGGGCUGUUCGCCCAUU (structured_RNA) [32mer (smFRET)]
- binding result (Hera_E115C_E227C): binds
- binding result [11]: binds
- binding result [12]: binds
- binding result [13]: binds

B1: fl-32/9mer (structured_RNA)
RNA 1: GCAGGUCCCAAGGGUUGGGCUGUUCGCCCAUU
RNA 2: UUGGGACCU
- Kd [14]: 1800 ± 800 nM
- Kd [4]: 1400 ± 500 nM
- Kd [15]: 16000 ± 6000 nM
- Kd (Hera [6]): 3000 ± 1000 nM
- Kd [16]: 3000 ± 300 nM
- Kd (Hera_K51Q [8]): 2100 ± 400 nM
- Kd (Hera [9]): 2000 ± 300 nM
- Kd [10]: 2500 ± 400 nM
